The results in this text go back to patent publication US20260167679A1, “FUSION PROTEIN TARGETING MITOCHONDRIA, METHOD OF MAKING AND USE THEREOF” (UNIVERSITY OF ROCHESTER, priority 2020, published 2026).

The subject of assay [1] is isolated C. elegans mitochondria. Kind of assay: Mitochondrial matrix pH measurement (BCECF-AM). The format is biochemical, Caenorhabditis elegans. Conditions: mtON activation by light. The protocol:
The ratiometric pH indicator BCECF-AM (Thermo Fisher, B1170) was used to measure pH changes in the mitochondrial matrix in response to succinate respiration or mtON activation. Isolated mitochondria (˜200 μl per isolation) were incubated at room temperature with 50 μM BCECF-AM for 10 min with periodic mixing. Mitochondria were then pelleted at 7,000 g for 5 min at 4° C., and isolation media replaced and pelleted again to remove extramitochondrial BCECF-AM. Isolated mitochondrial suspensions were then assayed under the same conditions as in the mitochondrial membrane potential measurements described above. Ratiometric fluorescent signal was measured by Cary Eclipse Fluorescence Spectrophotometer (Agilent Technologies) using 440 and 490 nm excitation wavelengths and 545 nm emission. The fluorescence intensity ratio at 545 nm of 490/440 nm excitation wavelengths was used to represent pH changes in the mitochondrial matrix. Light treatment was 0.16 J/cm^2 (XCite LED, 0.02 mW/mm^2), and 2 μM FCCP was used at the end of each trace to establish baseline signal.

The subject of assay [2] is C. elegans. Kind of assay: ETC inhibitor assays, survival of animals. Format: in vivo, Caenorhabditis elegans. The protocol: Experiments were performed on at least three separate days, using 15-100 young adult animals per plate. Seeded plates were supplemented with rotenone (50 μM final concentration), antimycin A (50 μM final concentration), or oligomycin A (31 μM final concentration) 24 h before animals were transferred onto them. For azide toxicity, animals were placed in M9 buffer with 250 mM azide. Control plates were kept in the dark, and experimental plates were exposed to 1 Hz light (Quantum LED, 0.02 mW/mm^2) for the duration of the experiment. For all toxins, animals that were moving or those that moved in response to a light touch to the head were scored as alive. For rotenone, surviving animals were scored after 5 h. For antimycin A, animals were scored 16 h after exposure. For azide, animals were exposed for 1 h in M9 and allowed to recover for 1 h on a seeded culture plate and then survival was scored. Azide experimental plates were exposed to light (XCite LED, 0.19 mW/mm^2) for the duration of azide treatment and recovery. […]. For oligomycin A, animals were scored 18 h after exposure.
Experiments were carried out using a hypoxic chamber (Coy Laboratory Products, 5%/95% H2/N2 gas, palladium catalyst) at 26° C. with 50-100 animals per plate. O2 was <0.01%. Hypoxic preconditioning (PC) duration was 4 h, and control animals were incubated at 26° C. in room air for the same time. 1 Hz illumination (Quantum LED, 0.02 mW/mm^2) was carried out during PC period or during the hypoxic period. Hypoxic exposure was for 18.5, 21 h after PC. Twenty-four hours after hypoxia exposure, animals that were moving or those that moved in response to a light touch to the head were scored as alive. Data from days where PC was at least 15% effective for both +ATR and −ATR were used. Animals supplemented with ATR were allowed to lay eggs onto plates with no ATR that were subsequently used for HR experiments to minimize confounding effects of ATR. ATR from the parent animal was sufficient to provide active mtON in progeny as tested by the azide toxin assay described above. […] FCCP dissolved in ethanol was deposited onto seeded NGM plates.

Assay [3] concerns C. elegans. Kind of assay: Lifespan of mtON-expressing worms. The format is in vivo, Caenorhabditis elegans. An excerpt:
Light treatment began at day 1 of adulthood for all experiments, a, Survival curves of mtON-expressing animals (extrachromosomal array). […] One-way ANOVA with Tukey's test; n=30 animals for day 4 conditions and 40 animals for day 10. […] The dotted arrow represents the molecular mechanisms to be investigated that link Δψm to aged physiology.
A) survival curve with the same conditions as FIG. 15B, but with light intensity (0.005 mW/cm2) below the threshold for mtON activation (0.01 mW/cm2). […] B) Survival curves of mtON-expressing animals versus mtON-expressing animals in a long-lived genetic background containing a constitutively active AMPK mutation.
Strain APW32 expresses mtON as an extrachromosomal array (mtON ext. chr. array), and strain APW273 expresses mtON in single copy through CRISPR/Cas9 genome integration (mtON CRISPR). See methods section for genotype details. Light intensity was varied to maintain temperature as best as possible, and proximal temperature readings directly adjacent to assay plates are reported to show local temperature variability from different incubators and from different light sources. All incubators were set to 20° C.

The next assay deals with HEK293T cells. Kind of assay: Luciferase-based ATP assay in HEK293T cells. The format is cell-based. The settings on record: 590 nm light, with or without 2-DG, vs cells in the dark. The protocol: (A) HEK293T cells expressing mtOn or GFP were illuminated with 590 nm light for 2 hours, followed by a luciferase-based ATP assay. (B) Same set-up as in (A), except HEK293T cells were treated with 10 mM 2-DG for 2 hours prior to illumination. (C) Activated CD8+ T cells were sorted based on GFP expression. GFP negative cells were used as the mock control. CD8+ T cells received 590 nm light for 30 minutes, followed by a luciferase-based ATP assay. All data shown as mean±SEM and analyzed by an unpaired t-test (n=4-7).
To test whether mitochondrial polarization driven by light-activated proton transport leads to enhanced ATP production (FIG. 9, panel A), the study transfected HEK293T cells and mouse CD8+ T cells with mtON, illuminated the cells (590±10 nm, 0.32 mW/mm^2 at 1 Hz), and immediately lysed them to detect ATP. 2-Deoxy-D-glucose (2-DG), a glucose analog, was used to inhibit glycolysis and thus mimic the glucose-deficient TME.
To test whether the mitochondrial polarization driven by light-activated proton transport leads to enhanced ATP production, we transfected HEK293T cells and mouse CD8+T cells with mtON, illuminated (590±10 nm, 0.32 mW/mm^2 at 1 Hz) them, and immediately lysed to detect ATP. 2-Deoxy-D-glucose (2-DG), a glucose analog, was used to inhibit glycolysis and thus mimic the glucose-deficient tumor microenvironment.

B1: mtON: fusion of the 187 N-terminal amino acids of mouse IMMT1 to the light-activated proton pump (Mac) from Leptosphaeria maculans (protein)
chain: MLRACQLSGVTVAAQSCLCGKFVLRPLRPCRRYSTSSSSGLTAGKIAGAGLLFVGGGIGGTILYAKWDSHFRESVEKTIPYSDKLFGMVLGSAPYTVPLPKKPVQSGPLKISSVSEVMKDSKLPVAQSQKTKGDTPASAASTGAAQIISAAGDTLSVPAPAVQHEDTIKTECPNTNEGKSTSETTEEPAGLIVDQFEEVLMKTSQLFPLPTATQSAQPTHVAPVPTVLPDTPIYETVGDSGSKTLWVVFVLMLIASAAFTALSWKIPVNRRLYHVITTIITLTAALSYFAMATGHGVALNKIVIRTQHDHVPDTYETVYRQVYYARYIDWAITTPLLLLDLGLLAGMSGAHIFMAIVADLIMVLTGLFAAFGSEGTPQKWGWYTIACIAYIFVVWHLVLNGGANARVKGEKLRSFFVAIGAYTLILWTAYPIVWGLADGARKIGVDGEIIAYAVLDVLAKGVFGAWLLVTHANLRESDVELNGFWANGLNREGAIRIGEDDGAR
modifications: Synthetic Complete mtON fusion protein sequence
Turning to B1, the “mitochondrial matrix pH (BCECF-AM ratio)” value in assay [1] is recorded as “matrix pH increased”. Also, the survival entry in the assay with C. elegans [2] (31 μM oligomycin A, scored 18 hours later) is given as “No significant differences”; with C. elegans [2] (50 μM rotenone for 5 hours, +ATR +light) it was “greater than the ATR alone effect”; with C. elegans [2] (azide toxin assay, progeny of ATR-supplemented parents, +ATR +light) it was 66.8%. The “survival of animals exposed to ETC toxins” value with C. elegans [2] (mtON active vs controls) is “survived more”. The lifespan result in the assay on C. elegans [3] (CRISPR insertion, vs light control) is given as “significantly extended lifespan compared to the light control”; with C. elegans [3] (extrachromosomal array, +ATR+light from day 1 of adulthood) it was “significantly extended lifespan”; with C. elegans [3] (light below the threshold to activate mtON (0.005 mW/cm2)), “not extended”; in the assay with C. elegans [3] (long-lived worms with constitutively active AMPK signaling), “further increased lifespan”; with C. elegans [3] (mtON activation throughout life vs control populations), “significant increase in lifespan”. Besides, the “light intensity threshold for mtON activation” value in the assay on C. elegans [3] (in vivo) came to 0.01 mW/cm2. Besides, the “lifespan extension in presence of FCCP” value in the assay with C. elegans [3] (mtON activation plus mitochondrial uncoupler FCCP) is recorded as “sensitive”. Moreover, the ATP entry in the assay on HEK293T cells is given as “significant increase in ATP”.
